The nature of this data set: protein stability index of a GFP-peptide fusion (GPS, HEK-293T) (PSI 1-6); higher = more stable.
The mark [1] stands for this setting: treatment: DMSO, c terminus: a fixed tail appended.
[2] abbreviates: treatment: MLN4924 1 uM, 8 h, c terminus: a fixed tail appended.
[3] abbreviates: treatment: DMSO, c terminus: native.
[4] abbreviates: treatment: MLN4924 1 uM, 8 h, c terminus: native.

± gives the standard deviation.
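Also: 24-mer peptide tiles fused after GFP, lentivirally expressed, FACS-sorted into six equal bins by GFP/DsRed ratio, decoded by Illumina sequencing, PSI is the read-weighted mean bin number.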

With PLLLLCNIKPRRYLTVVFEHDAWF [SLC29A1], the protein stability index under setting [1] worked out at 3.09 ± 0.71 and the protein stability index under setting [2] was 3.06 ± 0.52.
In the case of PLLMNRQRVPKVLVENAKNFPQCV [EFHC1], the protein stability index under setting [1] turned out to be 2.46 ± 0.44 and the protein stability index under setting [2] came out at 2.47 ± 0.072.
As to PLVGQDEFFLEQTKKKGVKRPARL [NOP53], the protein stability index reads like this: under setting [1], 4.18 ± 0.41; under setting [2], 4.2 ± 0.19.
Consider PMQESKAEGNNQAPGEEEEEEEEA [CHGA], for which the protein stability index is, setting by setting: under setting [1], 5.49 ± 0.39; under setting [2], 5.74 ± 0.15.
As to PNRAGAPGESLECPAELRPQVPQP [TRAF3IP2], the protein stability index runs as follows: under setting [1], 4.97 ± 0.16; under setting [2], 5.07 ± 0.26.
Regarding PPAEEAEQPGALAREFLAAMEPEP [FKBP8], the protein stability index runs as follows: under setting [1], 5.49 ± 0.45; under setting [2], 5.57 ± 0.072.
For PPAPAPLPPPSAPSLQPSRKLSPT [SCAMP3], in that order: 5.34 ± 0.25 and 5.32 ± 0.12.
Take PPGLPAETIKDLMRQFLRGLDFLH [CDK4]: the protein stability index was 2.21 ± 0.075 under setting [1] and 2.57 ± 0.7 under setting [2].
For the sequence PPGYSAWIKEEAAERYLYFPNWAM [SLC6A17], the protein stability index reads like this: under setting [1], 2.33 ± 0.28; under setting [2], 2.11 ± 0.4.
As to PPPPYEAVVSQMDQEQGSSFQMSE [FAM189A2], the protein stability index was determined as 5.54 ± 0.27 under setting [1] and 5.43 ± 0.096 under setting [2].
Regarding PPTLQEAGLSHTEVLFVQDLTDE [FAF2], the protein stability index is, setting by setting: under setting [3], 4.88 ± 0.25; under setting [4], 4.92 ± 0.15.
In the case of PQEEIATKKLRLTKPSKSAALHID [INTS4], the protein stability index reads like this: under setting [1], 4.36 ± 0.047; under setting [2], 4.46 ± 0.1.
Turning to PQKLLGCSPALKRSHSDSLDHDIF [CDC25A], the protein stability index worked out at 3.12 ± 0.28 under setting [1] and 3.24 ± 0.33 under setting [2].
In the case of PQNGSETGWARKGLGNTWPGASGS [ATP23], the protein stability index runs as follows: under setting [1], 4.32 ± 0.24; under setting [2], 4.33 ± 0.34.
Turning to PQQHFLEEKQASLWVQGDIFRSKL [CDC14A], the protein stability index runs as follows: under setting [1], 3.12 ± 0.18; under setting [2], 3.14 ± 0.28.
PQTLIMAYDYAKEVNSAEELEGLI [FEM1C] had a protein stability index under setting [1] of 3.75 ± 0.32 and a protein stability index under setting [2] of 3.56 ± 0.27.
As for PRAAGTDGSDFQHRERVAMHYQMS [JAGN1], the protein stability index reads like this: under setting [1], 3.96 ± 0.25; under setting [2], 4.06 ± 0.18.
Sequence PRLCYLVKEGGSYGFSLKTVQGKK [PDZK1] had a protein stability index under setting [1] of 3.02 ± 0.12.
For the sequence PRRLGRLKYQAPDIDVQLSSELTD [NOP53], the protein stability index is, setting by setting: under setting [1], 4.11 ± 0.48; under setting [2], 4.14 ± 0.34.
Regarding PSAAGAPASAPGEPRQRRLLLLDL [ANKRD9], the protein stability index reads like this: under setting [1], 2.86 ± 0.29; under setting [2], 3.11 ± 0.4.
With PSKVEVTEKTTTVLSESSGPSNTS [C2CD2L], the protein stability index is 5.43 ± 0.095 under setting [1] and 5.44 ± 0.23 under setting [2].
Sequence PSPGVLCGSARPKPYDPPGEKMVA [ATF4] yielded a protein stability index under setting [1] of 4.37 ± 0.28 and a protein stability index under setting [2] of 4.6 ± 0.23.
In the case of PSRGGNQLPRPPIVGGNKGRSGPL [WAS], the protein stability index under setting [1] came to 4.6 ± 0.07 and the protein stability index under setting [2] turned out to be 4.73 ± 0.22.
On to PSVCSENIHPQVLLPDQARGEVPW [ZNF263], for which the protein stability index came out at 4.19 ± 0.22 under setting [1] and 4.34 ± 0.37 under setting [2].
Regarding PTMAPAGQPAPVSMVPPSPAMAAS [SNAP91], the protein stability index was determined as 4.75 ± 0.22 under setting [1] and 4.89 ± 0.28 under setting [2].
Regarding PTVTTSWQSESLPVSLSASQSWHT [BCL2L13], the protein stability index is, setting by setting: under setting [1], 3.25 ± 0.31; under setting [2], 3.12 ± 0.22.
Consider PWLWSEQQVCQWLLWATNEFSLVN [ETS2], for which the protein stability index runs as follows: under setting [1], 2.76 ± 0.47; under setting [2], 2.42 ± 0.46.
Regarding PWSPCSARFITDFLDNGYGHCLLD [ADAMTS4], the protein stability index reads like this: under setting [1], 2.05 ± 0.21; under setting [2], 2.21 ± 0.41.
The like results for PYFSPSASFHHKLHHKRLAKECML [CBY2] were, in that order, 2.56 ± 0.11 and 2.5 ± 0.32.
As for PYMNPSPFTVSPNTHVSQVFNLFR [CLCN6], the protein stability index was found to be 2.64 ± 0.16 under setting [1] and 2.73 ± 0.2 under setting [2].
The like results for PYQALRLWARGTWTQATGLGCALL [SOAT2] were, in that order, 2.09 ± 0.46 and 2.05 ± 0.3.
As for PYQCSQCSKSYSRRSFLIEHQRSH [ZSCAN9], the protein stability index was 4.3 ± 0.2 under setting [1] and 4.45 ± 0.43 under setting [2].
Regarding QAIYVIDFFWNETWYLKTIDICHD [DHCR7], the protein stability index is, setting by setting: under setting [1], 3.14 ± 0.37; under setting [2], 3.25 ± 0.4.
With QARTQKLQGLIPGARYEVTVVSVR [TNXB], the protein stability index under setting [2] was found to be 2.22 ± 0.42.
Consider QASCDEAHKMKFSDLFSLAEEYED [INTS3], for which the protein stability index by setting is: under setting [1], 4.61 ± 0.23; under setting [2], 4.77 ± 0.27.
Turning to QATKASLKERFAFLFNSELLSDVR [BTBD1], the protein stability index under setting [1] came out at 2.55 ± 0.22 and the protein stability index under setting [2] was 2.67 ± 0.34.
With QCGPQTGLQSPGTLQPPEFLYSHG [TBX5], the protein stability index reads like this: under setting [1], 3.41 ± 0.25; under setting [2], 3.37 ± 0.34.
For QEELNRKAEELDRRERELQHAALG [SCAMP3], in that order: 5.39 ± 0.21 and 5.24 ± 0.55.
On to QEIMEKYNIKLKWTNQQKLYSRTG [CFHR2], for which the protein stability index reads like this: under setting [1], 2.45 ± 0.32; under setting [2], 2.66 ± 0.35.
In the case of QELLERGLLQLDHRGLRCSWEGLA [RSAD1], the protein stability index was determined as 2.31 ± 0.2 under setting [1] and 2.6 ± 0.23 under setting [2].
Turning to QEVSSVRSLSSTGSLPSHAPPSED [DLC1], the protein stability index runs as follows: under setting [1], 5.42 ± 0.22; under setting [2], 5.44 ± 0.24.
For QEVVELPVTERQIEREHLIQLRRW [TBC1D10A], the protein stability index runs as follows: under setting [1], 4.05 ± 0.25; under setting [2], 4.22 ± 0.2.
For the sequence QEYESIDPGQQFTWEHSNLEVNKP [PTPRD], the protein stability index runs as follows: under setting [1], 4.94 ± 0.1; under setting [2], 4.93 ± 0.069.
In the case of QFFTKGYQETISDVLNDAIFDEDH [GCH1], the protein stability index came out at 4.01 ± 0.33 under setting [1] and 3.92 ± 0.07 under setting [2].
On to QFTSSSSIKGSSGLGGGSSRTSCR [KRT17], for which the protein stability index was 4.34 ± 0.12 under setting [1] and 4.33 ± 0.26 under setting [2].
As for QHLGEYENVLAALEGLNLSILKAM [NECAB1], the protein stability index was 2.25 ± 0.24 under setting [1] and 2.38 ± 0.23 under setting [2].
Turning to QKELKKAQMAKAAAEERALFTDRM [WEE1], the protein stability index was determined as 4.69 ± 0.19 under setting [1] and 4.67 ± 0.16 under setting [2].
For the sequence QKISLLHSCTCVLYTPSNEHFGIV [ALG2], the protein stability index runs as follows: under setting [1], 2.55 ± 0.84; under setting [2], 2.61 ± 0.8.
The like results for QKLETDAMFRLEHGEADRSTLKKA [YJU2B] were, in that order, 5.22 ± 0.22 and 5.03 ± 0.14.
As to QKSPWCEARSLEHTLPVNRETLKR [ESR2], the protein stability index came to 4.23 ± 0.16 under setting [1] and 4.41 ± 0.21 under setting [2].
For QKTRLLEDSVSRLEKEIEVLERGD [PALM], the protein stability index is, setting by setting: under setting [1], 4.96 ± 0.069; under setting [2], 5.03 ± 0.27.
Regarding QLGTAGQGFSYSKSNGRGGSQAGG [MYOZ1], the protein stability index is 4.54 ± 0.2 under setting [1] and 4.93 ± 0.71 under setting [2].
QLHKPLAEGTPRSNHSAQDSAVEN [IKZF1]: the protein stability index turned out to be 5.35 ± 0.35 under setting [1] and 5.39 ± 0.3 under setting [2].
Take QLLLIKALQEKLWNVAAPLYLKQS [INTS4]: the protein stability index by setting is: under setting [1], 3.14 ± 0.31; under setting [2], 2.89 ± 0.18.
For QMVSAIVRTMQNTNDVETARCTAG [CTNNB1], the protein stability index was 2.87 ± 0.12 under setting [1] and 2.93 ± 0.3 under setting [2].
On to QNIQSWSNHSWNTQTWCTQSWNNQ [NANOGP8], for which the protein stability index reads like this: under setting [1], 2.53 ± 0.37; under setting [2], 2.61 ± 0.24.
The sequence QPELPCAMAMGTPSTTERISTSGQ [PXN] displayed a protein stability index under setting [1] of 4.72 ± 0.12 and a protein stability index under setting [2] of 4.9 ± 0.17.
As for QPHLPLLSTLAGIRVMVHGRNHTP [SCNN1D], the protein stability index is, setting by setting: under setting [1], 2.52 ± 0.24; under setting [2], 2.62 ± 0.26.
The like results for QPSDRLMTEKQQEEAEWESINVLL [CEP70] were, in that order, 4.38 ± 0.11 and 4.33 ± 0.12.
For QQESESEIDSVPKTQSELASESEH [MIA2], the protein stability index is, setting by setting: under setting [1], 5.44 ± 0.17; under setting [2], 5.62 ± 0.15.
Regarding QQIGDAIRMIVRGTLGSCSSSSEC [PLK2], the protein stability index is, setting by setting: under setting [1], 2.1 ± 0.23; under setting [2], 2.08 ± 0.39.
With QQLRRGRYVEFNLLYDRGTKFGLF [CPOX], the protein stability index under setting [1] is 2.52 ± 0.51 and the protein stability index under setting [2] is 2.56 ± 0.36.
Regarding QRARKEREKEDYLHLKRQPKRRWL [RHOBTB2], the protein stability index reads like this: under setting [1], 4.05 ± 0.23; under setting [2], 4.16 ± 0.23.
The like results for QRFRLDNLLNMAYGVKSPLSLIAR [ELAVL3] were, in that order, 2.05 ± 0.14 and 2.19 ± 0.18.
For QRQDPAAAQEGEDEGASAGQGPKP [GAGE1], in that order: 5.62 ± 0.13 and 5.7 ± 0.14.
The sequence QRRSMVSPNFGFMGQLLQYESEIL [DUSP5] yielded a protein stability index under setting [1] of 2.5 ± 0.29 and a protein stability index under setting [2] of 2.45 ± 0.38.
As for QSIQQAMRYLRNHCLDQVGLFRKS [DLC1], the protein stability index came to 2.73 ± 0.091 under setting [1] and 2.26 ± 0.28 under setting [2].
As for QSLKGHLRNNFQKQLLSNKELILD [ZC2HC1C], the protein stability index runs as follows: under setting [1], 3.08 ± 0.3; under setting [2], 3.17 ± 0.29.
QSVKMKDKLKIDLLPDGRHAVVEV [TAF7L] registered a protein stability index under setting [1] of 2.87 ± 0.32 and a protein stability index under setting [2] of 3.06 ± 0.36.
QTVPKRIPERLSIFCRDTQTVFQK [IQUB]: the protein stability index runs as follows: under setting [1], 2.56 ± 0.43; under setting [2], 2.24 ± 0.31.
QVPVVDFQAELRQAFLAETPRGG [SNURF] came in with a protein stability index under setting [3] of 3.04 ± 0.46 and a protein stability index under setting [4] of 3.19 ± 0.36.
With QVSQVKGAARLALLQGAGLDVERW [FCHSD1], the protein stability index amounted to 2.89 ± 0.32 under setting [1] and 3.16 ± 0.49 under setting [2].
On to QWFAMLRAEQDSEVGPQEINKEEL [GMCL1], for which the protein stability index runs as follows: under setting [1], 3.95 ± 0.43; under setting [2], 3.81 ± 0.2.
